From patent US20110135632A1

What was measured:
human GATA2 (human) = human GATA2 (human) (UniProt P23769); experiment: cell-based or functional assay
human TFII-I (human) = human TFII-I (human) (UniProt P78347); experiment: cell-based or functional assay
Chain of human TFII-I (human) (P78347 2-998 limits assumed): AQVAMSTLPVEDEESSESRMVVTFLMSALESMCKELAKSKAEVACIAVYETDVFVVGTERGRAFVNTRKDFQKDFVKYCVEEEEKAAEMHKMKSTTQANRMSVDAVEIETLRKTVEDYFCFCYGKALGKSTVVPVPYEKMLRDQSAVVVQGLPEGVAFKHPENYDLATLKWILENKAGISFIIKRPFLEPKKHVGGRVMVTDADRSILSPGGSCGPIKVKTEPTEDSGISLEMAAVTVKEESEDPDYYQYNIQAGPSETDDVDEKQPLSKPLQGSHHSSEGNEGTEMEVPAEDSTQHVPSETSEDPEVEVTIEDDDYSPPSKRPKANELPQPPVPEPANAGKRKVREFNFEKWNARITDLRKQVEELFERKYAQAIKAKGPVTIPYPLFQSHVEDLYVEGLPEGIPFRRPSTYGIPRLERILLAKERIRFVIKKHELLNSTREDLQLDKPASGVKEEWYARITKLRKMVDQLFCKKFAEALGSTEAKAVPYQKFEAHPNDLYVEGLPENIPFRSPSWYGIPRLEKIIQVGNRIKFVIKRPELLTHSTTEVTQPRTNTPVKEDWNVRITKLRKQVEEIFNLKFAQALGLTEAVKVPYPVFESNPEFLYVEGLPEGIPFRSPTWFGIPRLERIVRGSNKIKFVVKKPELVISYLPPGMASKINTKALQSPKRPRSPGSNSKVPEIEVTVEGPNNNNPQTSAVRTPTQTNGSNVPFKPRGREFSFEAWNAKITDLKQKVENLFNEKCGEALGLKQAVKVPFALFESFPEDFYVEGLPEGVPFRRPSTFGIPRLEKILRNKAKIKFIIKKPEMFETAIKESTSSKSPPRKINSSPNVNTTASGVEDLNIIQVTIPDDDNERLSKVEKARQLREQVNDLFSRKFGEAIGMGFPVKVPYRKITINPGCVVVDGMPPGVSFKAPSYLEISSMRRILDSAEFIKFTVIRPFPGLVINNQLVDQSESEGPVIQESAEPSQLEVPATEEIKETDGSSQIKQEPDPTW

Chain of human GATA2 (human) (P23769 whole entry): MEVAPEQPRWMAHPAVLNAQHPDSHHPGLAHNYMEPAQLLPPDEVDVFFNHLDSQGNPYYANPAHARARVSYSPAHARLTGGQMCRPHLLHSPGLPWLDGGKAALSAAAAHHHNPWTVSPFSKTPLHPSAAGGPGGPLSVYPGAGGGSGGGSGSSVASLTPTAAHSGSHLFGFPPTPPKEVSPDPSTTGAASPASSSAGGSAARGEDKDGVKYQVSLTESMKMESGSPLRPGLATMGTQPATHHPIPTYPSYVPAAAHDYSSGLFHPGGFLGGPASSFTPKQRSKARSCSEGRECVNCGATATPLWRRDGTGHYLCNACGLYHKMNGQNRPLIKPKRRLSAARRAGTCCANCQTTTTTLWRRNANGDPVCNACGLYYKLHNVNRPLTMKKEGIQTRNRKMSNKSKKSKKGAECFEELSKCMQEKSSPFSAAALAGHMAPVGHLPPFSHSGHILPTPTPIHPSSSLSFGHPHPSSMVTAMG

B1: human p190RhoGAP (protein)
chain: MMMARKQDVRIPTYNISVVGLSGTEKEKGQCGIGKSCLCNRFVRPSADEFHLDHTSVLSTSDFGGRVVNNDHFLYWGEVSRSLEDCVECKMHIVEQTEFIDDQTFQPHRSTALQPYIKRAAATKLASAEKLMYFCTDQLGLEQDFEQKQMPDGKLLVDGFLLGIDVSRGMNRNFDDQLKFVSNLYNQLAKTKKPIVVVLTKCDEGVERYIRDAHTFALSKKNLQVVETSARSNVNVDLAFSTLVQLIDKSRGKTKIIPYFEALKQQSQQIATAKDKYEWLVSRIVKNHNENWLSVSRKMQASPEYQDYVYLEGTQKAKKLFLQHIHRLKHEHIERRRKLYLAALPLAFEALIPNLDEIDHLSCIKAKKLLETKPEFLKWFVVLEETPWDATSHIDNMENERIPFDLMDTVPAEQLYEAHLEKLRNERKRVEMRRAFKENLETSPFITPGKPWEEARSFIMNEDFYQWLEESVYMDIYGKHQKQIIDKAKEEFQELLLEYSELFYELELDAKPSKEKMGVIQDVLGEEQRFKALQKLQAERDALILKHIHFVYHPTKETCPSCPACVDAKIEHLISSRFIRPSDRNQKNSLSDPNIDRINLVILGKDGLARELANEIRALCTNDDKYVIDGKMYELSLRPIEGNVRLPVNSFQTPTFQPHGCLCLYNSKESLSYVVESIEKSRESTLGRRDNHLVHLPLTLILVNKRGDTSGETLHSLIQQGQQIASKLQCVFLDPASAGIGYGRNINEKQISQVLKGLLDSKRNLNLVSSTASIKDLADVDLRIVMCLMCGDPFSADDILFPVLQSQTCKSSHCGSNNSVLLELPIGLHKKRIELSVLSYHSSFSIRKSRLVHGYIVFYSAKRKASLAMLRAFLCEVQDIIPIQLVALTDGAVDVLDNDLSREQLTEGEEIAQEIDGRFTSIPCSQPQHKLEIFHPFFKDVVEKKNIIEATHMYDNAAEACSTTEEVFNSPRAGSPLCNSNLQDSEEDIEPSYSLFREDTSLPSLSKDHSKLSMELEGNDGLSFIMSNFESKLNNKVPPPVKPKPPVHFEITKGDLSYLDQGHRDGQRKSVSSSPWLPQDGFDPSDYAEPMDAVVKPRNEEENIYSVPHDSTQGKIITIRNINKAQSNGSGNGSDSEMDTSSLERGRKVSIVSKPVLYRTRCTRLGRFASYRTSFSVGSDDELGPIRKKEEDQASQGYKGDNAVIPYETDEDPRRRNILRSLRRNTKKPKPKPRPSITKATWESNYFGVPLTTVVTPEKPIPIFIERCIEYIEATGLSTEGIYRVSGNKSEMESLQRQFDQDHNLDLAEKDFTVNTVAGAMKSFFSELPDPLVPYNMQIDLVEAHKINDREQKLHALKEVLKKFPKENHEVFKYVISHLNKVSHNNKVNLMTSENLSICFWPTLMRPDFSTMDALTATRTYQTIIELFIQQCPFFFYNRPITEPPGARPSSPSAVASTVPFLTSTPVTSQPSPPQSPPPTPQSPMQPLLPSQLQAEHTL
B1 gave a GATA2 levels in the nucleus of p190RhoGAP knockdown cells relative to control cells (immunoblotting, fluorescence microscopy) (human GATA2 (human)) greater than 10 fold and a TFII-I protein levels in the nuclear fraction of p190RhoGAP knockdown HMVE cells (immunoblot, fluorescence microscopy) (human TFII-I (human)) of 1.5 fold.
